According to the supplement of paper PMC10126150:
± gives the standard deviation of the averaged measurements.

System: ATP
Experiment: switch fluorescence ratio, 500 uM ATP over buffer (Cy3 cluster intensity, sum of 5 cycles each) (fold (ratio)); higher = stronger signal-on switching upon ATP binding; sequences stand for … in TCGTCGGCAGCGTCAGATGTGTATAAGAGACAGTTTTTTTTTTTTTTTTTTTTTTTTT…TC
Conditions: aptamer strand: ATP DNA aptamer (quencher-CACCTGGGGGAGTATTGCGGAGGAAGG + anchor), 100 nM annealed; ATP concentration: 500 uM
Method in brief: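 Between each of five buffer/ATP cycles, the flow-cell was stripped with NaOH and re-annealed. Each cycle imaged Cy3-labelled switching-strand clusters, annealed to 100 nM quencher-labelled ATP aptamer on a modified Illumina MiSeq flow-cell, first in selection buffer and then after 15 min with 500 uM ATP at 22 °C. The fluorescence ratio is summed target-cycle over summed buffer-cycle Cy3 intensity per cluster, averaged per switch-domain sequence, with clusters outside 100-1000 RFU excluded.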
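Also: ATP exposure 15 min at 22 °C before imaging.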

Sequence | switch fluorescence ratio
GAAGGGGAAT | 1.003 ± 0.0052
CGGTTGAGGT | 0.999 ± 0.047
AGTGTAGTCT | 0.961 ± 0.02
AATAATGTTG | 0.998 ± 0.015
TCTGTGGGTT | 0.973 ± 0.051
AGCAGGTTGT | 1.05 ± 0.015
GAGGTAATC | 1.02 ± 0.037
CGGAAACGTG | 1.01 ± 0.028
ACGGTTTTTC | 1.0014 ± 0.0005
CCAAAAGGTT | 1.01 ± 0.017
TTAGTTTCTT | 0.999 ± 0.017
ACCGGGGTGC | 1.612 ± 0.0063
CAAAAAATAC | 2.23 ± 1.7
TTTTTCAACT | 1.03 ± 0.036
AAATAACGGT | 1.16 ± 0.21
CATGAATGGG | 1.01 ± 0.032
TAGGACGGGT | 0.9932 ± 0.0054
ATATTCGTG | 0.985 ± 0.013
GCTACCGTTT | 1.04 ± 0.041
GCCAGCAAGC | 2.25 ± 0.34
TGATTTATG | 1.01 ± 0.002
AGTGTGTGTG | 1.013 ± 0.0024
TTGAGCAGCT | 1.08 ± 0.085

Sequence | switch fluorescence ratio
CATGCGCTGG | 1.17 ± 0.13
GTTTTTCCCC | 1.11 ± 0.14
TTTAAAATTA | 0.9978 ± 0.0042
AAACACAAGA | 1.13 ± 0.18
AGTATATCTT | 0.98 ± 0.012
AGGAACTGCA | 1.07 ± 0.029
GTAGTAGCTT | 1.017 ± 0.003
TGGGGGGCAG | 0.969 ± 0.017
ATTATAGGGG | 0.986 ± 0.0017
ACACTCACCC | 1.57 ± 0.36
TTTTGGTAAT | 1.01 ± 0.014
ATAAAAGGAT | 0.973 ± 0.014
TTAGGCGGTT | 1 ± 0.017
GGTGTTCACT | 0.995 ± 0.019
TTTGATGTTT | 1 ± 0.031
CTGTATATGG | 0.985 ± 0.042
TATTTTGCCT | 1.036 ± 0.01
TCAACAGTTG | 0.998 ± 0.011
TTAGGGGGCA | 1.01 ± 0.03
TAGGGGGGAT | 0.992 ± 0.035
TGGTACGTGG | 0.974 ± 0.032
GCCGAATATG | 1.01 ± 0.015
TGTTTTGAAT | 1.006 ± 0.0096

Sequence | switch fluorescence ratio
TTTTTCTTGT | 1.01 ± 0.047
ATTAGATATA | 1 ± 0.035
ATGGGTGGG | 0.965 ± 0.032
AGATTCATTT | 0.984 ± 0.021
TATAGTGGGA | 1 ± 0.032
GGGAATCATG | 0.971 ± 0.044
AAAGAGTTTT | 1.02 ± 0.071
GTGCGCAATT | 2.02 ± 0.082
GTTGGTATGT | 0.994 ± 0.018
ACTTAACATT | 1.18 ± 0.056
TCTGTAAGGT | 0.986 ± 0.02
AAAACGTTAC | 1.68 ± 0.02
TTACAGTTTT | 0.9442 ± 0.0036
TGAAAGCACA | 1.11 ± 0.06
AAAGGCATGT | 1.04 ± 0.017
CTTAGGGAGT | 1.006 ± 0.0028
TTTCACAATC | 1.07 ± 0.076
TGGGAGTAAA | 1.02 ± 0.027
GGCGGGGGGC | 0.986 ± 0.026
CTTACGGGGT | 1.1 ± 0.093
GTTGATAGCG | 0.991 ± 0.025
GATGACAGGG | 1.01 ± 0.12
TCGAGTGCGT | 0.978 ± 0.014

Sequence | switch fluorescence ratio
CGCCAAATG | 1.033 ± 0.0019
TTTAAAACTT | 2.03 ± 1.4
CAGCGGCTTT | 0.977 ± 0.032
ACGTCCGCTA | 2.6 ± 0.064
GTCGGTATTA | 0.984 ± 0.034
CGTGCTGTTA | 0.98019 ± 0.0002
AACAGAGGGG | 1.01 ± 0.018
GCGTTGCCAG | 0.9816 ± 0.0081
CTGAATTAGT | 1.01 ± 0.019
TATATCTGAC | 1.16 ± 0.074
TAAGGTTTTT | 1.03 ± 0.063
TTTTGATCGT | 0.962 ± 0.023
TTTTTATTTC | 1 ± 0.019
ATTATAGTAA | 0.9886 ± 0.0022
ATAGACAGTG | 1.02 ± 0.13
AATTAATGGA | 0.997 ± 0.036
TTTCGGAGA | 1.11 ± 0.17
TAAGCCGCCT | 0.998 ± 0.016
GACGGGTGGC | 1.11 ± 0.02
CTGATTCAGA | 0.98 ± 0.019
GGGGACCTTA | 0.993 ± 0.028
CATGATACGG | 1.03 ± 0.011
CGTTTATTTT | 1.01 ± 0.03

Sequence | switch fluorescence ratio
TTAGATCTGC | 1.02 ± 0.083
TAAGGTGGTA | 1.02 ± 0.014
GACTAGGCGG | 1.12 ± 0.2
TACGAAGGGG | 1.02 ± 0.018
GGGATGGTAG | 1.01 ± 0.027
TGGGGGGCTG | 0.983 ± 0.048
ATGGGCGGGG | 0.9947 ± 0.0065
CGTGCTATTC | 1.235 ± 0.012
ATAGACGTAT | 1.01 ± 0.011
GTTATATGTG | 0.982 ± 0.055
TATAAGTTCC | 1.07 ± 0.075
CCTTTTGCGC | 1.31 ± 0.012
TTTTAAAATT | 1 ± 0.035
AAGGTATGC | 1.01 ± 0.048
GGGGTAGACA | 1 ± 0.031
TTAGTTGTGG | 0.982 ± 0.02
CCTTATTAGG | 1.002 ± 0.0075
CCAGAAAGTG | 1.26 ± 0.38
CGATTCAACG | 1.02 ± 0.012
TCTTAGGTTG | 1.028 ± 0.0062
ATATTTGATA | 1.01 ± 0.039
GTTCTTACTT | 0.973 ± 0.059
TACGGTTGCA | 1.01 ± 0.017

Sequence | switch fluorescence ratio
GCATCCGGCG | 1.04 ± 0.081
TTTGCTGTTT | 1.01 ± 0.013
CCTACGGTGG | 1.04 ± 0.04
AAAGGGCGAC | 0.973 ± 0.014
ATGTCAAGGC | 1.05 ± 0.052
GCCAGGGGGT | 1.08 ± 0.12
GGTGGGGTCC | 0.987 ± 0.011
CGGCTGGTGG | 1.02 ± 0.016
AGGCGTTGGT | 1.05 ± 0.11
TTTTTAATCC | 1.05 ± 0.017
CTTACGGGTC | 0.9901 ± 0.005
TGTTTGATTT | 0.975 ± 0.019
GGGTAGCTCG | 0.987 ± 0.031
TTCAATGGCA | 1.0245 ± 0.00028
GATGAAAGGC | 1.046 ± 0.0017
TGCTAATAGT | 1.028 ± 0.0074
CGAATAGCGG | 0.9757 ± 0.002
TTTAATGCG | 1.01 ± 0.025
CGCTGAGTGC | 1.08 ± 0.034
TACTGGTATG | 1.03 ± 0.037
GGGGGATGTT | 0.997 ± 0.026
ATTATGGGTA | 1.02 ± 0.036
GAGTCAGAGG | 0.989 ± 0.039

Sequence | switch fluorescence ratio
AGGTTGGGCA | 0.984 ± 0.0096
AATTTTTTAT | 0.979 ± 0.036
ATGAGGGT | 1.01 ± 0.015
AGGGAGGAGC | 0.923 ± 0.045
CATATTATGT | 1.02 ± 0.011
CAGCTCAGCC | 1 ± 0.042
AAGTTTCGGG | 0.987 ± 0.027
GGGTTGGTCA | 0.994 ± 0.0094
ATGTGGCCGG | 0.997 ± 0.024
CATAGGCCGT | 1.03 ± 0.047
GGGTGCGTTG | 1.04 ± 0.024
ATGGGTCAAT | 1 ± 0.014
TTCCTGATGC | 1.04 ± 0.092
GAAGGTGTTG | 1.036 ± 0.0084
CACATGGTGT | 1.15 ± 0.02
ATGGTATGGT | 0.9855 ± 0.0081
AGTGGGGGAA | 0.985 ± 0.027
TGCTAAATTA | 1.01 ± 0.011
CGATCTAGTA | 0.97 ± 0.015
